In patent US20260274955A1 (JANUX THERAPEUTICS, published 2026):

These binders were tested against T1, Anti-CD28 Fab (SEQ ID NOs: 202, 203) (assay: phage ELISA, Fab on plate, CD28 antigen as competitor).
T1 construct: biotinylated and captured on neutravidin coated plates in the phage ELISA
T1 sequence (VH, as listed by the source, chain 1 of 2): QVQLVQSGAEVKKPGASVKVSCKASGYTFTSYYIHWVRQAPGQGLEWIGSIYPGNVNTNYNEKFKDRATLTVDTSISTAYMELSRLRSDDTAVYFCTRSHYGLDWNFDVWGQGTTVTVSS
T1 sequence (VL, as listed by the source, chain 2 of 2): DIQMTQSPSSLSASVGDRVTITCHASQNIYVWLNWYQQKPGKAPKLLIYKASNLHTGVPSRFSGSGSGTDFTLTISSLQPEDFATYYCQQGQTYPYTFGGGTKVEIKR
Description: After panning, phage infected bacteria were plated out and colonies picked into 96 well blocks. Clonal phage was then amplified and separated from bacterial cells via centrifugation.
Clonal phage were harvested as crude supernatants and screened via standard ELISAs. […] Prior to the addition of clonal phage, wells were incubated with blocking buffer and CD28 antigen or blocking buffer alone. Without washing or aspirating, clonal phage supernatants were then added to the wells and incubated for a short time. Wells were then washed followed by detection of bound phage using a horse radish conjugated anti-M13 antibody. Clonal phage of interest were then sent for sequence analysis.

Compared with YCQGHSVEHMAKCL [Phage-666], YCDGHAEQYMSKCL [Phage-623] is higher in “Anti-CD28 Fab signal in the presence of CD28” value (“Anti-CD28 Fab signal” below): 0.06 for the first, 0.07 for the second.

First: YCDGHVKEYMYKCL [Phage-636]
Second: YCEGHLEIYLAKCL [Phage-655]
The “Anti-CD28 Fab signal” value of the first is lower: 0.06 for the first, 0.07 for the second.

First: YCEGHSPEYMHKCL [Phage-647]
Second: YCEGHSQLYMAKCL [Phage-630]
The “Anti-CD28 Fab signal” value of the first is higher: 0.09 for the first, 0.07 for the second.

First: YCMGHLPIYMEKCL [Phage-670]
Second: YCDGHLPRYMAKCL [Phage-642]
The “Anti-CD28 Fab signal” value of the first is lower: 0.05 for the first, 0.1 for the second.

Going from YCDGHLPDYMAKCL [Phage-712] to YCDGHAPQYMRKCL [Phage-651], the “Anti-CD28 Fab signal” value rises from 0.07 to 0.08.

First: YCAGHALEYMGKCL [Phage-657]
Second: YCDGHSAEYIAKCL [Phage-662]
The “Anti-CD28 Fab signal” value of the first is higher: 0.06 for the first, 0.05 for the second.

YCEGHSAEYIGKCL [Phage-738] and YCEGHSLEYMMKCV [Phage-664] are the same in “Anti-CD28 Fab signal” value: 0.07 for the first, 0.07 for the second.

Going from YCNGHLPEYMSKCI [Phage-618] to YCDGHLPLYMQKCF [Phage-652], the “Anti-CD28 Fab signal” value rises from 0.07 to 0.1.

YCEGHLDEYLQKCL [Phage-626] and YCAGHTSEYMSKCL [Phage-634] are the same in “Anti-CD28 Fab signal” value: 0.07 for the first, 0.07 for the second.

Compared with YCDGHLALYMWKCL [Phage-637], YCDGHLSEYIGKCL [Phage-629] is lower in “Anti-CD28 Fab signal” value: 0.17 for the first, 0.06 for the second.

Going from YCDGHSETYLWKCL [Phage-631] to YCEGHLPMYMQKCL [Phage-660], the “Anti-CD28 Fab signal” value falls from 0.1 to 0.08.

First: YCAGHLPMYMQKCL [Phage-653]
Second: YCEGHLPMYMTKCL [Phage-686]
The “Anti-CD28 Fab signal” value of the first is higher: 0.08 for the first, 0.06 for the second.

Going from YCDGHSEAYIEKCL [Phage-648] to YCDGLFQLYMMKCL [Phage-624], the “Anti-CD28 Fab signal” value rises from 0.06 to 0.07.

Going from YCDGHMVQYMAKCL [Phage-639] to YCDGHAPQYMAKCI [Phage-665], the “Anti-CD28 Fab signal” value falls from 0.07 to 0.06.

Going from YCAGHASEYMAKCL [Phage-650] to YCDGHLSIYMTKCL [Phage-638], the “Anti-CD28 Fab signal” value falls from 0.08 to 0.07.

Going from YCEGHLVQYMQKCL [Phage-669] to YCEGHDVQYMQKCL [Phage-749], the “Anti-CD28 Fab signal” value rises from 0.06 to 0.08.

Compared with YCDGHQPQYMSKCL [Phage-628], YCAGHMPIYMTKCL [Phage-667] is lower in “Anti-CD28 Fab signal” value: 0.09 for the first, 0.08 for the second.

First: YCEGHLPEYMIKCL [Phage-658]
Second: YCDGHSLEYMLKCL [Phage-620]
The “Anti-CD28 Fab signal” value of the first is lower: 0.06 for the first, 0.07 for the second.

Going from YCEGHLPAYMGKCI [Phage-632] to YCDGHAPEYIQKCL [Phage-625], the “Anti-CD28 Fab signal” value falls from 0.09 to 0.06.

Going from YCDGHDARYMEKCL [Phage-616] to YCDGHLLQYMHKCL [Phage-644], the “Anti-CD28 Fab signal” value rises from 0.06 to 0.07.

Going from YCDGHSEEFMWKCL [Phage-640] to YCEGHHPWYVQKCL [Phage-621], the “Anti-CD28 Fab signal” value rises from 0.06 to 0.07.

First: YCSEHQIIFIQKCL [Phage-654]
Second: YCEGHMEKYMEKCL [Phage-641]
The “Anti-CD28 Fab signal” value of the first is lower: 0.08 for the first, 0.11 for the second.

Compared with YCDGHSPEHMGKCL [Phage-615], YCEGHSAVYMSKCL [Phage-663] is lower in “Anti-CD28 Fab signal” value: 0.09 for the first, 0.06 for the second.

First: YCDGHMKEYMLKCL [Phage-635]
Second: YCDGHRAEYMLKCL [Phage-668]
The “Anti-CD28 Fab signal” value of the first is lower: 0.06 for the first, 0.08 for the second.

Compared with YCSGHLPEYMDKCL [Phage-619], YCDGHIPEYMTKCL [Phage-661] is lower in “Anti-CD28 Fab signal” value: 0.07 for the first, 0.06 for the second.

First: YCDGHSKEYMAKCL [Phage-646]
Second: YCEGHLPAYMWKCL [Phage-659]
The “Anti-CD28 Fab signal” value of the first is lower: 0.06 for the first, 0.08 for the second.

What follows are binders tested against T1, Anti-CD28 Fab (SEQ ID NOs: 202, 203) (assay: phage ELISA, Fab on plate;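 further: crude clonal phage supernatants added to wells pretreated with blocking buffer with or without CD28 antigen, then bound phage read out via HRP-linked anti-M13 antibody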).

Going from YCQGHSVEHMAKCL [Phage-666] to YCDGHAEQYMSKCL [Phage-623], the “Anti-CD28 Fab (SEQ ID NOs: 202, 203) signal” value rises from 1.3 to 1.38.

Compared with YCDGHVKEYMYKCL [Phage-636], YCEGHLEIYLAKCL [Phage-655] is lower in “Anti-CD28 Fab (SEQ ID NOs: 202, 203) signal” value: 1.36 for the first, 1.32 for the second.

Compared with YCEGHSPEYMHKCL [Phage-647], YCEGHSQLYMAKCL [Phage-630] is higher in “Anti-CD28 Fab (SEQ ID NOs: 202, 203) signal” value: 1.34 for the first, 1.37 for the second.

Going from YCMGHLPIYMEKCL [Phage-670] to YCDGHLPRYMAKCL [Phage-642], the “Anti-CD28 Fab (SEQ ID NOs: 202, 203) signal” value rises from 1.28 to 1.35.

Compared with YCDGHLPDYMAKCL [Phage-712], YCDGHAPQYMRKCL [Phage-651] is higher in “Anti-CD28 Fab (SEQ ID NOs: 202, 203) signal” value: 1.17 for the first, 1.33 for the second.

Compared with YCAGHALEYMGKCL [Phage-657], YCDGHSAEYIAKCL [Phage-662] is lower in “Anti-CD28 Fab (SEQ ID NOs: 202, 203) signal” value: 1.32 for the first, 1.31 for the second.

First: YCEGHSAEYIGKCL [Phage-738]
Second: YCEGHSLEYMMKCV [Phage-664]
The “Anti-CD28 Fab (SEQ ID NOs: 202, 203) signal” value of the first is lower: 1.08 for the first, 1.3 for the second.

Compared with YCNGHLPEYMSKCI [Phage-618], YCDGHLPLYMQKCF [Phage-652] is lower in “Anti-CD28 Fab (SEQ ID NOs: 202, 203) signal” value: 1.4 for the first, 1.33 for the second.

Compared with YCEGHLDEYLQKCL [Phage-626], YCAGHTSEYMSKCL [Phage-634] is lower in “Anti-CD28 Fab (SEQ ID NOs: 202, 203) signal” value: 1.38 for the first, 1.36 for the second.

First: YCDGHLALYMWKCL [Phage-637]
Second: YCDGHLSEYIGKCL [Phage-629]
The “Anti-CD28 Fab (SEQ ID NOs: 202, 203) signal” value of the first is lower: 1.36 for the first, 1.37 for the second.

Going from YCDGHSETYLWKCL [Phage-631] to YCEGHLPMYMQKCL [Phage-660], the “Anti-CD28 Fab (SEQ ID NOs: 202, 203) signal” value falls from 1.37 to 1.31.

Going from YCAGHLPMYMQKCL [Phage-653] to YCEGHLPMYMTKCL [Phage-686], the “Anti-CD28 Fab (SEQ ID NOs: 202, 203) signal” value falls from 1.33 to 1.25.

Compared with YCDGHSEAYIEKCL [Phage-648], YCDGLFQLYMMKCL [Phage-624] is higher in “Anti-CD28 Fab (SEQ ID NOs: 202, 203) signal” value: 1.34 for the first, 1.38 for the second.

Compared with YCDGHMVQYMAKCL [Phage-639], YCDGHAPQYMAKCI [Phage-665] is lower in “Anti-CD28 Fab (SEQ ID NOs: 202, 203) signal” value: 1.36 for the first, 1.3 for the second.

First: YCAGHASEYMAKCL [Phage-650]
Second: YCDGHLSIYMTKCL [Phage-638]
The “Anti-CD28 Fab (SEQ ID NOs: 202, 203) signal” value of the first is lower: 1.33 for the first, 1.36 for the second.

Going from YCEGHLVQYMQKCL [Phage-669] to YCEGHDVQYMQKCL [Phage-749], the “Anti-CD28 Fab (SEQ ID NOs: 202, 203) signal” value falls from 1.28 to 1.06.

Compared with YCDGHQPQYMSKCL [Phage-628], YCAGHMPIYMTKCL [Phage-667] is lower in “Anti-CD28 Fab (SEQ ID NOs: 202, 203) signal” value: 1.38 for the first, 1.3 for the second.

Going from YCEGHLPEYMIKCL [Phage-658] to YCDGHSLEYMLKCL [Phage-620], the “Anti-CD28 Fab (SEQ ID NOs: 202, 203) signal” value rises from 1.32 to 1.39.

First: YCEGHLPAYMGKCI [Phage-632]
Second: YCDGHAPEYIQKCL [Phage-625]
The “Anti-CD28 Fab (SEQ ID NOs: 202, 203) signal” value of the first is lower: 1.37 for the first, 1.38 for the second.

Compared with YCDGHDARYMEKCL [Phage-616], YCDGHLLQYMHKCL [Phage-644] is lower in “Anti-CD28 Fab (SEQ ID NOs: 202, 203) signal” value: 1.4 for the first, 1.35 for the second.

Going from YCDGHSEEFMWKCL [Phage-640] to YCEGHHPWYVQKCL [Phage-621], the “Anti-CD28 Fab (SEQ ID NOs: 202, 203) signal” value rises from 1.35 to 1.39.

Going from YCSEHQIIFIQKCL [Phage-654] to YCEGHMEKYMEKCL [Phage-641], the “Anti-CD28 Fab (SEQ ID NOs: 202, 203) signal” value rises from 1.32 to 1.35.

First: YCDGHSPEHMGKCL [Phage-615]
Second: YCEGHSAVYMSKCL [Phage-663]
The “Anti-CD28 Fab (SEQ ID NOs: 202, 203) signal” value of the first is higher: 1.4 for the first, 1.31 for the second.

First: YCDGHMKEYMLKCL [Phage-635]
Second: YCDGHRAEYMLKCL [Phage-668]
The “Anti-CD28 Fab (SEQ ID NOs: 202, 203) signal” value of the first is higher: 1.36 for the first, 1.29 for the second.

First: YCSGHLPEYMDKCL [Phage-619]
Second: YCDGHIPEYMTKCL [Phage-661]
The “Anti-CD28 Fab (SEQ ID NOs: 202, 203) signal” value of the first is higher: 1.39 for the first, 1.31 for the second.

Compared with YCDGHSKEYMAKCL [Phage-646], YCEGHLPAYMWKCL [Phage-659] is lower in “Anti-CD28 Fab (SEQ ID NOs: 202, 203) signal” value: 1.34 for the first, 1.31 for the second.
